Fold signal turn-on (co-culture against cells cultured individually) data for one substance are collected here from article PMC12698293.

This experiment addresses LgBiT (large BiT fragment of split NanoLuc) secreted from GCN4-LgBiT receiver cells. The experiment in a line: split reporter.

On to “scFv-SmBiT fusion secreted by sender^high cells (anti-GCN4 scFv, HA tag, G4Sx4 linker, high-affinity SmBiT peptide)”, for which the fold signal turn-on (co-culture against cells cultured individually) is above 130 fold.
